Measured values as given in patent US20120220492A1.

What was measured:
antibody against c-kit = assay: cell-based or functional assay
antibody against CD29 = assay: cell-based or functional assay

Substance | infectivity on MO7E cells (fold lower than the 25% virus) (antibody against c-kit) | infectivity on Jurkat cells (fold lower than the 25% virus) (antibody against CD29) | transduction efficiency on MO7E cells (antibody against c-kit) | transduction efficiency on MO7E cells (fold higher than wildtype) (antibody against c-kit) | transgene expression (antibody against c-kit; scale: fold higher than virus with wildtype capsid) | transgene expression (antibody against c-kit; scale: times higher than virus with wildtype capsid) | infectious titers on Jurkat cells (GFP positive cells by FACS) (antibody against CD29; scale: times higher than virus with a wildtype capsid)
AAV mosaic composed of 50% mutant capsid proteins with a Protein A fragment (Z34C) insertion at position 587 (from UniProt P03135 1-735; P03135 139-735; P03135 203-735; P03135 139-735; P03135 203-735) | 3 | 2 |  |  |  |  | 
AAV mosaic composed of 25% mutant capsid proteins with a Protein A fragment (Z34C) insertion at position 587 (from UniProt P03135 1-735; P03135 139-735; P03135 203-735; P03135 139-735; P03135 203-735) |  |  | 10 fold | 100 | 100 | 100000 | 2 to 3
